Numbering of substitutions follows the chain as printed. Numbers in names are those of the source.
B1: peripheral myelin protein 22 (PMP22): L16P/N41Q (protein)
parent chain: MLLLLLSIIVLHVAVPVLLFVSTIVSQWIVGNGHATDLWQNCSTSSSGNVHHCFSSSPNEWLQSVQATMILSIIFSILSLFLFFCQLFTLTKGGRFYITGIFQILAGLCVMSAAAIYTVRHPEWHLNSDYSYGFAYILAWVAFPLALLSGVIYVILRKRE
B2: peripheral myelin protein 22 (PMP22): NGI-1 (protein)
parent chain: B1 parent chain with P16L
B3: peripheral myelin protein 22 (PMP22): G93R/N41Q (protein)
parent chain: B1 parent chain with P16L, G93R
B4: peripheral myelin protein 22 (PMP22): UGGT1 KO (protein)
parent chain: B1 parent chain with P16L
B5: peripheral myelin protein 22 (PMP22): T118M/N41Q (protein)
parent chain: B1 parent chain with P16L, T118M
B6: peripheral myelin protein 22 (PMP22): C19 (protein)
parent chain: B1 parent chain with P16L
B7: peripheral myelin protein 22 (PMP22): A67T/N41Q (protein)
parent chain: B1 parent chain with P16L, A67T
B8: peripheral myelin protein 22 (PMP22): STT3A KO (protein)
parent chain: B1 parent chain with P16L
B9: peripheral myelin protein 22 (PMP22): N41Q (protein)
parent chain: B1 parent chain with P16L
B10: peripheral myelin protein 22 (PMP22): STT3B KO (protein)
parent chain: B1 parent chain with P16L

Key:
[1] = flow cytometry, total cellular PMP22, HEK293; conditions: glycan lost; control: same variant with N41 intact
[2] = flow cytometry, cell surface PMP22, rat Schwann cells; conditions: glycan lost; control: same variant with N41 intact
[3] = flow cytometry, total PMP22, primary rat Schwann cells; conditions: glycan lost; control: same variant with N41 intact
[4] = single-cell flow cytometry, surface/total PMP22, HEK293; conditions: glycan lost
[5] = flow cytometry, trafficking efficiency, rat Schwann cells; conditions: glycan lost; control: same variant with N41 intact
[6] = flow cytometry, normalized trafficking efficiency of WT PMP22; conditions: glycan lost; control: WT PMP22 in untreated or DMSO-treated HEK293
[7] = flow cytometry, trafficking efficiency of CMTD PMP22 variants; conditions: glycan lost; control: same CMTD variant in untreated HEK293
[8] = flow cytometry, cell surface PMP22, HEK293; conditions: glycan lost; control: same CMTD variant with N41 intact
[9] = flow cytometry, total cellular PMP22; conditions: glycan changed form; control: WT PMP22 in parental HEK293
[10] = flow cytometry, trafficking efficiency; conditions: glycan changed form; control: WT PMP22 in parental HEK293

| Protein | expression_or_secretion [1] | localisation_or_trafficking, fold_change [6] | localisation_or_trafficking [7] | localisation_or_trafficking [8] | other results |
| --- | --- | --- | --- | --- | --- |
| B1 | no change |  |  |  | localisation_or_trafficking [2]: increases; expression_or_secretion [3]: no change; localisation_or_trafficking, other: trafficking efficiency ([4]; control: L16P PMP22): increases, 34 ± 10 vs 3 ± 1; localisation_or_trafficking [5]: increases |
| B2 |  | increases | increases |  |  |
| B3 | increases |  |  | increases |  |
| B4 |  |  |  |  | expression_or_secretion [9]: decreases; localisation_or_trafficking [10]: decreases |
| B5 | increases |  |  | increases |  |
| B6 |  | increases |  |  |  |
| B7 | increases |  |  | increases |  |
| B8 |  | no change | no change |  |  |
| B9 |  |  |  |  | localisation_or_trafficking, other: trafficking efficiency ([4]; control: wild type): increases, 53 ± 7 vs 19 ± 5 |
| B10 |  | increases | no change |  |  |

Source: article PMC8191293
